Experimental data: patent publication US20110118177

Experiments:
[1] = biological target: bovine serum albumin (BSA) (Roth, Karlsruhe, Germany) (UniProt P02769)
[2] = test system: cyanophycin (multi-L-arginyl-poly-[L-aspartic acid]), Cyanophycin Granule Polypeptide
[3] = test system: bovine casein (Hammersten-grade) (Merck, Darmstadt, Germany)

Chain of bovine serum albumin (BSA) (Roth, Karlsruhe, Germany) (P02769 25-607): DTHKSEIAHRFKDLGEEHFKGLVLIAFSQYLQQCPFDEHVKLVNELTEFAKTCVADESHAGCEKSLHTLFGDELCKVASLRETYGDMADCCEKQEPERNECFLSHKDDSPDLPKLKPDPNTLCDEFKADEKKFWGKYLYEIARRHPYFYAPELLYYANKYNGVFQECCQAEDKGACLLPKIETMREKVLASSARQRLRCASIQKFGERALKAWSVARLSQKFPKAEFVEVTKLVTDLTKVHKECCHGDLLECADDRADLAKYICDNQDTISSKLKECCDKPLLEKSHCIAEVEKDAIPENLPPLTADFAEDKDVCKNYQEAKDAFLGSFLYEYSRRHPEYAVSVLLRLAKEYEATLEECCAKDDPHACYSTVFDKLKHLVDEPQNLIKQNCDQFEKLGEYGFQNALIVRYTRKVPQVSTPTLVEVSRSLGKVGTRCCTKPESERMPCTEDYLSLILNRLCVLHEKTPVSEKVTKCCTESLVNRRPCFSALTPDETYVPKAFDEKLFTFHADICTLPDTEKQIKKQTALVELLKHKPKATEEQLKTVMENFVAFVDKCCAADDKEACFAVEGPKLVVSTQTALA

extracellular cyanophycinase (CGPase) CphEal from Pseudomonas alcaligenes strain DIP1
degradation (in comparison to CGP) [1]: also BSA was partially degraded (65% in comparison to CGP)
degradation activity (substrate specificity test) [2]: showed the highest degradation activity on CGP
degradation (substrate specificity test) [3]: Bovine casein and poly(aspartic acid) were minimally affected by the enzymatic activity of the purified CphEal
